Results taken from US20150010591A1 (UNIVERSITY OF BRITISH COLUMBIA, published 2015).

Key:
Experiment in all cases: peptide eluted from immunoaffinity-purified MHC class II of infected C57BL/6 BM-DCs, LC-MS/MS
[1] = molecular target: T1, …, peptide of C. trachomatis Sigma Regulatory factor (CT424) (Chlamydia trachomatis)
T1 construct: also called RsbV peptide

[2] = molecular target: T2, […], peptide of C. trachomatis Predicted D-Amino Acid Dehydrogenase (CT375) (Chlamydia trachomatis)
T2 construct: also called CT375 peptide

[3] = molecular target: T3, …, peptide of C. trachomatis Hypothetical protein CT837 (Chlamydia trachomatis)
T3 construct: also called CT837 peptide

[4] = molecular target: T4, …, peptide of C. trachomatis Hypothetical protein CT144 (Chlamydia trachomatis)
T4 construct: also called CT144 peptide

[5] = molecular target: T5, …, peptide of C. trachomatis Hypothetical protein CT289 (Chlamydia trachomatis)
T5 construct: also called CT289 peptide

[6] = molecular target: T6, …, peptide of C. trachomatis Dihydrolipoamide acetyltransferase (CT247) (Chlamydia trachomatis)
T6 construct: also called PdhC peptide

[7] = molecular target: T7, IPFAKPDANLSAED, peptide of C. trachomatis Hypothetical protein CT619 (Chlamydia trachomatis)
T7 construct: also called CT619 peptide

[8] = molecular target: T8, …, peptide of C. trachomatis FHA domain; homology to adenylate cyclase (CT664) (Chlamydia trachomatis)
T8 construct: also called CT664 peptide

[9] = molecular target: T9, …, peptide of C. trachomatis Muramidase (invasin repeat family) (CT759) (Chlamydia trachomatis)
T9 construct: also called NlpD peptide

[10] = molecular target: T10, …, peptide of C. trachomatis Hypothetical protein CT143 (Chlamydia trachomatis)
T10 construct: also called CT143 peptide

[11] = molecular target: T11, …, peptide of C. trachomatis CHLPN 76kDa Homolog (CT622) (Chlamydia trachomatis)
T11 construct: also called CT622 peptide

[12] = molecular target: T12, …, peptide of C. trachomatis Hypothetical protein CT472 (Chlamydia trachomatis)
T12 construct: also called CT472 peptide

Measured: binding result

B1: MHC class II (I-Ab) molecules of bone marrow derived dendritic cells from C57BL/6 mice (receptor)
MHC II alpha: EDDIEADHVGTYGISVYQSPGDIGQYTFEFDGDELFYVDLDKKETVWMLPEFGQLASFDPQGGLQNIAVVKHNLGVLTKRSNSTPATNEAPQATVFPKSPVLLGQPNTLICFVDNIFPPVINITWLRNSKSVADGVYETSFFVNRDYSFHKLSYLTFIPSDDDIYDCKVEHWGLEEPVLKHWEPEIPAPMSELTETVVCALGLSVGLVGIVVGTIFIIQGLRSGGTSRHPGPL
MHC II beta: GDSERHFVYQFMGECYFTNGTQRIRYVTRYIYNREEYVRYDSDVGEHRAVTELGRPDAEYWNSQPEILERTRAELDTVCRHNYEGPETHTSLRRLEQPNVVISLSRTEALNHHNTLVCSVTDFYPAKIKVRWFRNGQEETVGVSSTQLIRNGDWTFQVLVMLEMTPRRGEVYTCHVEHPSLKSPITVEWRAQSESAWSKMLSGIGGCVLGVIFLGLGLFIRHRSQKGPRGPPPAGLLQ
notes: whole, on cells; also called MHC class II molecules
binds: [1] | [2] | [3] | [4] | [5] | [6] | [7] | [8] | [9] | [10] | [11] | [12]
